B1: ADI-10173 Fab (Fab, V domains shown)
VH: QVQLVQSGAEVKKPGASVKVSCKASGYTFTSYYMHWVRQAPGQGLEWMGIINPSGGSTTYAQKFQGRVTMTRDTSTSTVYMELSSLRSEDTAVYYCAREAADGFVGERYFDLWGRGTLVTVSS
VL: not shown
notes: Fab fragment; also called Ab22
B2: ADI-10173 IgG (antibody, V domains shown)
VH: B1 VH
VL: not shown
notes: IgG; also called Ab22
B3: ADI-10163 Fab (Fab, V domains shown)
VH: QVQLQESGPGLVKPSQTLSLTCTVSGGSISSGGYYWSWIRQHPGKGLEWIGSIYYSGSTYYNPSLKSRVTISVDTSKNQFSLKLSSVTAADTAVYYCARDRLDYSYNYGMDVWGQGTTVTVSS
VL: DIQMTQSPSSLSASVGDRVTITCRASQSISSYLNWYQQKPGKAPKLLIYGASSLQSGVPSRFSGSGSGTDFTLTISSLQPEDFATYYCQQVYSAPFTFGGGTKVEIK
notes: Fab fragment; also called Ab17
B4: ADI-10163 IgG (antibody, V domains shown)
VH: B3 VH
VL: B3 VL
notes: IgG; also called Ab17

How the values were obtained:
[1] = biological target: T1, human CD33 extracellular domain (human, UniProt P20138 18-259); experiment: SPR, Fab captured, 37 C
T1 construct: also called human CD33 ECD; hCD33
Procedure: (§1) Kinetics and affinity of a series of Fab fragments of anti-CD33 antibodies with different CD33 variants (human CD33 ECD, cyno CD33 ECD, V-domain of human CD33, C-domain or human CD33 and selected CD33 SNPs) were assessed by surface plasmon resonance using Biacore 8K instrument (GE Healthcare). Anti-Fab antibody was immobilized on a CMS chip using standard amine coupling chemistry. CD33 FABs were captured on the anti-Fab chip at a density of ˜100 RU. Solutions containing different concentrations of soluble monomeric CD33 or its domains were injected over the captured FABs and control surfaces at 30 μl/min at 37° C. Surfaces were regenerated between cycles by quick injection of 10 mM glycine, pH 1.8. To obtain kinetic rate constants double-referenced data were fit to a 1:1 interaction model using Biacore 8K Evaluation software (GE Healthcare). The equilibrium binding constant KD was determined by the ratio of binding rate constants kd/kₐ.
(§2) Affinity of 29 Fab fragments binding to human and cyno CD33 ECD were assayed by Biacore analysis.

[2] = biological target: T2, deglycosylated V domain of human CD33 (human, UniProt P20138 18-139, limits assumed, deglycosylated by PNGase); experiment: SPR, Fab captured, 37 C
T2 construct: whole entry named; also called deglycosylated V CD33
Procedure: as §1
The ability of anti-CD33 antibodies to recognize glycosylated CD33 was assayed. […] De-glycosylation status was confirmed by a shift on SDS-PAGE and MS.

[3] = biological target: T1, human CD33 extracellular domain; experiment: SPR, Fab captured, 37 C; remark: listed apart in the source
Procedure: as §1, §2

[4] = biological target: T1, human CD33 extracellular domain; experiment: SPR, Fab captured, 37 C; remark: listed apart in the source
Procedure: as §1, §2

[5] = biological target: T1, human CD33 extracellular domain; experiment: SPR, Fab captured, 37 C; remark: listed apart in the source
Procedure: as §1

[6] = biological target: T1, human CD33 extracellular domain; experiment: BLI, IgG on sensor
Procedure: Briefly, ForteBio affinity measurements were performed by loading IgGs on-line onto AHC sensors. Sensors were equilibrated off-line in assay buffer for 30 min and then monitored on-line for 60 seconds for baseline establishment. Sensors with loaded IgGs were exposed to 100 nM antigen for 3 minutes, and afterwards were transferred to assay buffer for 3 min for off-rate measurement. All kinetics were analyzed using the 1:1 binding model.

Row | Binder | koff [1] | kon [1] | koff [2] | kon [2] | koff [3] | kon [3] | koff [4] | kon [4] | koff [5] | kon [5] | koff [6] | kon [6]
1 | B1 | 0.0125 s⁻¹ | 212000 M⁻¹ s⁻¹ | 0.131 s⁻¹ | 674000 M⁻¹ s⁻¹ | 0.0125 s⁻¹ | 212000 M⁻¹ s⁻¹ | 0.0125 s⁻¹ | 212000 M⁻¹ s⁻¹ | 0.0125 s⁻¹ | 212000 M⁻¹ s⁻¹ | – | –
2 | B2 | – | – | – | – | – | – | – | – | – | – | 0.00314 s⁻¹ | 324000 M⁻¹ s⁻¹
3 | B3 | 0.0275 s⁻¹ | 515000 M⁻¹ s⁻¹ | 0.256 s⁻¹ | 1.68e+06 M⁻¹ s⁻¹ | 0.0275 s⁻¹ | 515000 M⁻¹ s⁻¹ | 0.0275 s⁻¹ | 515000 M⁻¹ s⁻¹ | 0.0275 s⁻¹ | 515000 M⁻¹ s⁻¹ | – | –
4 | B4 | – | – | – | – | – | – | – | – | – | – | 0.00453 s⁻¹ | 665000 M⁻¹ s⁻¹

From US20200376034A1 (DRAGONFLY THERAPEUTICS, published 2020)
